Data published in patent US20250302962A1, “BIOCONJUGATE COMPRISING A PHOTOSENSITIZER UNIT, METHOD FOR ITS PREPARATION AND USE THEREOF” (UNIVERSITE DE BORDEAUX, priority 2021, published 2025).

Experiments:
Assay type in all cases: physicochemical
[1] = Singlet oxygen quantum yield of the phthalocyanine; details: measured in dimethylsulfoxide
From the text: It has particularly outstanding photo-physical properties. […] Singlet oxygen quantum yield of this phthalocyanine, measured in dimethylsulfoxide, mounts up to ϕΔ=0.72. The presence of the tert-butyl groups not only minimizes the formation of molecular aggregates, but also increases the solubility of the compound in organic solvents.

[2] = Turbidity assay, onset transition temperature (Tt) of ELP and TT1 bioconjugates in PBS; details: for Tt in PBS: PBS pH 7.4, onset transition temperature
Experimental: UV-Vis spectroscopy: The transition temperatures (Tt) are determined by following the turbidity at 600 or 500 nm absorption versus temperature on Agilent Cary 100 UV-Vis spectrophotometer equipped with a multicell thermo-electric temperature controller. Turbidity is measured over a temperature range from 10 to 60° C. at 1° C. min^−1 of a scan rate before and after the conjugation reaction at three concentrations of phthalocyanine (10, 20 and 30 μM) in phosphate buffer (PBS, pH 7.4).
The thermo-responsive character of ELP, before and after TT1 conjugation, is measured by turbidity assays in phosphate buffer (PBS, pH 7.4) following the absorbance at 600 and 500 nm, respectively, over a temperature range from 10 to 60° C.
The same analysis is carried out for TT1-ELP(O) (obtained by chemical oxidation of methionyl groups) and TT1-ELP^PhOx (obtained by oxidation triggered by photo-irradiation of methionyl groups).

[3] = Dynamic light scattering size distribution of TT1-ELP and TT1-ELP^PhOx
Experimental: Dynamic light scattering: The DLS measurements of TT1-ELP (at 20° C. and 37° C.) and TT1-ELP^PhOx (at 37° C.) are performed on a Nano ZS 90 instrument (HeNe laser 632.8 nm, Malvern) at a 90° angle at a constant position in the cuvette (constant scattering volume at 30 μM concentration in 1×PBS, pH 7.4). The values of Z-average hydrodynamic diameter (DH) and polydispersity index (PDI) are obtained from the 2nd order cumulant fit using a CONTIN-like algorithm.
In order to mimic the self-assembly and photooxidation-triggered disassembly profile of TT1-ELP, dynamic light scattering (DLS) measurements are performed in physiological conditions (PBS pH 7.4 at 37° C.) on TT1-ELP and TT1-ELP^PhOx.
Due to the stacking tendency of TT1 upon direct dissolution of TT1-ELP in PBS at ambient temperature, 60 nm micelles with narrow size distribution (PDI 0.2) are observed in DLS measurement conducted at 165° angle via 657 nm laser (FIG. 5-A)).

[4] = direct dissolution in PBS, ambient temperature, 165° angle, 657 nm laser

Molecule | Singlet oxygen quantum yield ϕΔ [1] | Tt in PBS ([2]; 10 μM) [°C] | Tt in PBS ([2]; 20 μM) [°C] | solubility ([2]; 10, 20 and 30 μM in PBS pH 7.4 at 10° C.) | drop of Tt after conjugation of TT1 ([2]; versus ELP, PBS pH 7.4) | particle size (hydrodynamic diameter) ([3]; above Tt, 37° C., PBS pH 7.4) [μm] | PDI [3, 4] | micelle size [3, 4] [nm] | aggregation state by DLS ([3]; temperature dropped back to 20° C., PBS pH 7.4)
9(10),16(17),23(24)-Tri-tert-butyl-2-carboxy-5,28:14,19-diimino-7,12:21,26-dinitrilotetrabenzo[c,h,m,r][1,6,11,16]tetraazacycloeicosinato-(2)-N^29,N^30,N^31,N^32zinc(II) [TT1] | 0.72 |  |  |  |  |  |  |  | 
TT1-ELP: phthalocyanine TT1 coupled by CuAAC triazole linker to the N-terminus of ELP (SEQ ID No: 11) (conjugate, N-terminal phthalocyanine TT1 via triazole; Elastin-like polypeptide) MWVPGVGVPGMGVPGVGVPGVGVPGVGVPGMGVPGVGVPGVGVPGVGVPGMGVPGVGVPGVGVPGVGVPGMGVPGVGVPGVGVPGVGVPGMGVPGVGVPGVGVPGVGVPGMGVPGVGVPGVGVPGVGVPGMGVPGVGVPGVGVPGVGVPGMGVPGVGVPGVGVPGVGVPGMGVPGVGVPGVGVPGVGVPGMGVPGVGVPGVG |  | 29 | 28 | fully soluble | approximately 10 °C | 1.5 | 0.2 | 60 | disassembly of these aggregates
